Here are results for one substance from patent US20220003772A1, “METHODS OF TREATING CANCER” (priority 2018, published 2022).

The target of one test is T1, BCMA (Homo sapiens, UniProt Q02223).
T1 construct: BCMA membrane expression is present on a subset of normal late-stage B cells and is universally detected on normal and malignant plasma cells; endogenous in cells; host or cells: plasma/myeloma cells of the clinical study subjects (in vivo)
T1 sequence (Q02223 1-184): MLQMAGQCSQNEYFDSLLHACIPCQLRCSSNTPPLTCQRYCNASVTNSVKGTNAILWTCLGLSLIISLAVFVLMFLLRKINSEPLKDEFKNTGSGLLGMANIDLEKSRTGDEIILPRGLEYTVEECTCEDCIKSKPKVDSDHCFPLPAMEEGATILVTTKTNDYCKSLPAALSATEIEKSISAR
The test can be described thus: Dose escalation / expansion clinical study of J6M0-MMAF: response by IMWG criteria. It is filed as in vivo. Conditions: expansion cohort of 35 subjects (Part2), dose 3.40 mg/kg; 21/35; 95% CI 42.1-76.1.

In a further test the target is T2, free sBCMA (Homo sapiens, UniProt Q02223).
T2 construct: the extracellular portion of the BCMA receptor is cleaved from the membrane of the plasma cell surface; from tissue; host or cells: serum of clinical study subjects
T2 sequence (Q02223 1-54 limits assumed): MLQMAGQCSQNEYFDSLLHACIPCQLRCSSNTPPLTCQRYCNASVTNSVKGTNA
Briefly: Reduction of free sBCMA in serum after infusion (free sBCMA MSD immunoassay). It is filed as in vivo. Conditions: at higher dose levels. As for the experimental part:
In a dose escalation clinical study, 38 subjects were treated with J6M0-MMAF (Part1). The doses ranged from 0.03 mg/kg up to 4.60 mg/kg (0.03 mg/kg, 0.06 mg/kg, 0.12 mg/kg, 0.24 mg/kg, 0.48 mg/kg, 0.96 mg/kg, 1.92 mg/kg, 2.5 mg/kg, 3.4 mg/kg, and 4.6 mg/kg). An expansion cohort of 35 subjects followed at a dose of 3.40 mg/kg (Part2). […] Levels of circulating soluble BCMA (sBCMA) were followed during these studies. Soluble BCMA was measured in serum samples collected at pre- and post-infusion of J6M0-MMAF. Immunoassays (FIG. 1) were used to determine the levels of free sBCMA (FIG. 1a) and J6M0-MMAF-bound sBCMA (FIG. 1b).
Free sBCMA Assay Protocol (FIG. 1a) 1.1. Preparation of Anti-BCMA Antibody Coated Plates (3 μg/ml)
1. An appropriate volume (˜3 mL per plate) of capture coating antibody was prepared—anti-BCMA antibody (J6M0) at 3 μg/mL in DPBS.
2. […]
1. 1×MSD read buffer was prepared as follows:
5 mL of 4×MSD read buffer T (Meso Scale Discovery #R92TC-1) plus 15 mL of Milli-Q water.
3. […], of 1× read buffer was transferred into to each well of the assay plate.
4. The MSD assay plate was read immediately by using the MSD Sector Imager 6000 (Meso Scale Discovery).
The binding of J6M0-MMAF to sBCMA was measured by comparing the post-infusion levels of free sBCMA measured 60 minutes after the start of infusion to those found at pre-infusion. […]

On to J6M0-MMAF, for which the “overall response rate (ORR) by IMWG criteria” value in the test with BCMA was determined as 60%. Besides, the “binding of sBCMA by J6M0-MMAF in patients” value in the test with free sBCMA is given as “binds a large fraction of sBCMA”.
